In PMC9482650, “Quantitative fragmentomics allow affinity mapping of interactomes” (Nature Communications, 2022):

Each binder was assayed against AHNAK1, Q09666 (assay: holdup assay). Details: plain residues with an end cap or a label only (N-terminal biotin on a linker: ado-ado).
Set-up: key: below the threshold = too weak to quantify, mostly under pKd 3.1 to 4

Sequence of AHNAK1, Q09666 (Q09666 4-100): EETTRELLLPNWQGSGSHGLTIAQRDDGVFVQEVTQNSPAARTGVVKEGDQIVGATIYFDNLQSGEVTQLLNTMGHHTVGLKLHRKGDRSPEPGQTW

Binder	pKd
EKCGKEFSEF [PRKACA, P17612]	below the threshold
EDLEDEWEVI [TECPR2, O15040]	below the threshold

The binders below were run against T1, APBA1_1, Q02410 (assay: holdup assay). Details: plain residues with an end cap or a label only (N-terminal biotin on a linker: ado-ado).
T1 sequence (Q02410 651-752, limits assumed, looked up): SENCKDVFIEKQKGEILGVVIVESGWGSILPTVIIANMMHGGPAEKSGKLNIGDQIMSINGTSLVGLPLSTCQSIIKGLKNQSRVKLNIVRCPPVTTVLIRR
Set-up: key: below the threshold = too weak to quantify, mostly under pKd 3.1 to 4

Binder	pKd
EKCGKEFSEF [PRKACA, P17612]	below the threshold
EDLEDEWEVI [TECPR2, O15040]	below the threshold

What follows are binders tested against DLG1_1, Q12959 (assay: holdup assay). Details: plain residues with an end cap or a label only (N-terminal biotin on a linker: ado-ado).
Set-up: key: below the threshold = too weak to quantify, mostly under pKd 3.1 to 4

Binder	pKd
EKCGKEFSEF [PRKACA, P17612]	below the threshold
EDLEDEWEVI [TECPR2, O15040]	below the threshold

The binders below were run against DLG1_3, Q12959 (assay: holdup assay). Details: plain residues with an end cap or a label only (N-terminal biotin on a linker: ado-ado).
Set-up: key: below the threshold = too weak to quantify, mostly under pKd 3.1 to 4

Binder	pKd
EKCGKEFSEF [PRKACA, P17612]	below the threshold
EDLEDEWEVI [TECPR2, O15040]	below the threshold

These binders were tested against DLG2_2, Q15700 (assay: holdup assay). Details: plain residues with an end cap or a label only (N-terminal biotin on a linker: ado-ado).
Set-up: key: below the threshold = too weak to quantify, mostly under pKd 3.1 to 4

Binder	pKd
EKCGKEFSEF [PRKACA, P17612]	below the threshold
EDLEDEWEVI [TECPR2, O15040]	below the threshold

Each binder was assayed against DLG2_3, Q15700 (assay: holdup assay). Details: plain residues with an end cap or a label only (N-terminal biotin on a linker: ado-ado).
Set-up: key: below the threshold = too weak to quantify, mostly under pKd 3.1 to 4

Binder	pKd
EKCGKEFSEF [PRKACA, P17612]	3.74
EDLEDEWEVI [TECPR2, O15040]	3.77

What follows are binders tested against GIPC2, Q8TF65 (assay: holdup assay). Details: plain residues with an end cap or a label only (N-terminal biotin on a linker: ado-ado).
Sequence of GIPC2, Q8TF65 (Q8TF65 112-203): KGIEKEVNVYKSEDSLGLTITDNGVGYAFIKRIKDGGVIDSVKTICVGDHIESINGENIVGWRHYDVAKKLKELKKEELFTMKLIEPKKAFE
Set-up: key: below the threshold = too weak to quantify, mostly under pKd 3.1 to 4

Binder	pKd
EKCGKEFSEF [PRKACA, P17612]	below the threshold
EDLEDEWEVI [TECPR2, O15040]	below the threshold

What follows are binders tested against GOPC, Q9HD26 (assay: holdup assay). Details: plain residues with an end cap or a label only (N-terminal biotin on a linker: ado-ado).
Set-up: key: below the threshold = too weak to quantify, mostly under pKd 3.1 to 4

Binder	pKd
EKCGKEFSEF [PRKACA, P17612]	below the threshold
EDLEDEWEVI [TECPR2, O15040]	below the threshold

What follows are binders tested against GORASP2, Q9H8Y8 (assay: holdup assay). Details: plain residues with an end cap or a label only (N-terminal biotin on a linker: ado-ado).
Set-up: key: below the threshold = too weak to quantify, mostly under pKd 3.1 to 4

Binder	pKd
EKCGKEFSEF [PRKACA, P17612]	below the threshold
EDLEDEWEVI [TECPR2, O15040]	4.44

These binders were tested against GRID2IP_1, A4D2P6 (assay: holdup assay). Details: plain residues with an end cap or a label only (N-terminal biotin on a linker: ado-ado).
Sequence of GRID2IP_1, A4D2P6 (A4D2P6 1-87): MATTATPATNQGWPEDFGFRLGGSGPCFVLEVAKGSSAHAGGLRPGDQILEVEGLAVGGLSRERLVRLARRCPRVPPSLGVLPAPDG
Set-up: key: below the threshold = too weak to quantify, mostly under pKd 3.1 to 4

Binder	pKd
EKCGKEFSEF [PRKACA, P17612]	below the threshold
EDLEDEWEVI [TECPR2, O15040]	below the threshold

What follows are binders tested against T2, GRIP1_2, Q9Y3R0 (assay: holdup assay). Details: plain residues with an end cap or a label only (N-terminal biotin on a linker: ado-ado).
T2 sequence (Q9Y3R0 145-248, limits assumed, looked up): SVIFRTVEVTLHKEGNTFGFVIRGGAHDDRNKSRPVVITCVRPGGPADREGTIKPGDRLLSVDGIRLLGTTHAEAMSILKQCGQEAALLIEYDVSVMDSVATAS
Set-up: key: below the threshold = too weak to quantify, mostly under pKd 3.1 to 4

Binder	pKd
EKCGKEFSEF [PRKACA, P17612]	below the threshold
EDLEDEWEVI [TECPR2, O15040]	below the threshold

The binders below were run against T3, GRIP1_3, Q9Y3R0 (assay: holdup assay). Details: plain residues with an end cap or a label only (N-terminal biotin on a linker: ado-ado).
T3 sequence (Q9Y3R0 247-346, limits assumed, looked up): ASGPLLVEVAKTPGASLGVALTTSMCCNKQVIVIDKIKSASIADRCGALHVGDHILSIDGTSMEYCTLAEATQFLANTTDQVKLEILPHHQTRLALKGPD
Set-up: key: below the threshold = too weak to quantify, mostly under pKd 3.1 to 4

Binder	pKd
EKCGKEFSEF [PRKACA, P17612]	below the threshold
EDLEDEWEVI [TECPR2, O15040]	below the threshold

What follows are binders tested against T4, GRIP1_7, Q9Y3R0 (assay: holdup assay). Details: plain residues with an end cap or a label only (N-terminal biotin on a linker: ado-ado).
T4 sequence (Q9Y3R0 999-1096, limits assumed, looked up): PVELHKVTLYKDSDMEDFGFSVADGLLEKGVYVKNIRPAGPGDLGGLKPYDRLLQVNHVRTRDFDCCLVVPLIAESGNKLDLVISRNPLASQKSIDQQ
Set-up: key: below the threshold = too weak to quantify, mostly under pKd 3.1 to 4

Binder	pKd
EKCGKEFSEF [PRKACA, P17612]	below the threshold
EDLEDEWEVI [TECPR2, O15040]	below the threshold

These binders were tested against GRIP2_7, Q9C0E4 (assay: holdup assay). Details: plain residues with an end cap or a label only (N-terminal biotin on a linker: ado-ado).
Sequence of GRIP2_7, Q9C0E4 (Q9C0E4 934-1023): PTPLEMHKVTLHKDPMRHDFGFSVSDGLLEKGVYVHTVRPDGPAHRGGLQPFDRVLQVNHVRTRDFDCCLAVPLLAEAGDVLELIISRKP
Set-up: key: below the threshold = too weak to quantify, mostly under pKd 3.1 to 4

Binder	pKd
EKCGKEFSEF [PRKACA, P17612]	below the threshold
EDLEDEWEVI [TECPR2, O15040]	below the threshold

The binders below were run against Inadl_1, Q8NI35 (assay: holdup assay). Details: plain residues with an end cap or a label only (N-terminal biotin on a linker: ado-ado).
Sequence of Inadl_1, Q8NI35 (Q8NI35 113-229): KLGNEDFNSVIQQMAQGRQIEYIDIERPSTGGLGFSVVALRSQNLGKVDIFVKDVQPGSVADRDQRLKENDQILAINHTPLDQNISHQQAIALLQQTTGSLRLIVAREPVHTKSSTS
Set-up: key: below the threshold = too weak to quantify, mostly under pKd 3.1 to 4

Binder	pKd
EKCGKEFSEF [PRKACA, P17612]	below the threshold
EDLEDEWEVI [TECPR2, O15040]	below the threshold

The binders below were run against LDB3, O75112 (assay: holdup assay). Details: plain residues with an end cap or a label only (N-terminal biotin on a linker: ado-ado).
Sequence of LDB3, O75112 (O75112 1-94): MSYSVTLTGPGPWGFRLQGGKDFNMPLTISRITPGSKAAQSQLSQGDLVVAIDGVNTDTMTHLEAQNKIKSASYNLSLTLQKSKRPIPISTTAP
Set-up: key: below the threshold = too weak to quantify, mostly under pKd 3.1 to 4

Binder	pKd
EKCGKEFSEF [PRKACA, P17612]	below the threshold
EDLEDEWEVI [TECPR2, O15040]	below the threshold

The binders below were run against T5, LIN7A, O14910 (assay: holdup assay). Details: plain residues with an end cap or a label only (N-terminal biotin on a linker: ado-ado).
T5 sequence (O14910 103-200, limits assumed, looked up): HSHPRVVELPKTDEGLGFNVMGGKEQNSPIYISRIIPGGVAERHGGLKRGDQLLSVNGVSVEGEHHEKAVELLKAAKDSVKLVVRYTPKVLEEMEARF
Set-up: key: below the threshold = too weak to quantify, mostly under pKd 3.1 to 4

Binder	pKd
EKCGKEFSEF [PRKACA, P17612]	below the threshold
EDLEDEWEVI [TECPR2, O15040]	below the threshold

The binders below were run against MAGI2_2, Q86UL8 (assay: holdup assay). Details: plain residues with an end cap or a label only (N-terminal biotin on a linker: ado-ado).
Sequence of MAGI2_2, Q86UL8 (Q86UL8 410-522): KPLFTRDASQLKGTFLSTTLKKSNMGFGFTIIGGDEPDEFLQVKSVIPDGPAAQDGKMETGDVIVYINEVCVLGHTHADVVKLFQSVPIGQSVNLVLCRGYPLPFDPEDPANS
Set-up: key: below the threshold = too weak to quantify, mostly under pKd 3.1 to 4

Binder	pKd
EKCGKEFSEF [PRKACA, P17612]	below the threshold
EDLEDEWEVI [TECPR2, O15040]	below the threshold

These binders were tested against MAGI2_3, Q86UL8 (assay: holdup assay). Details: plain residues with an end cap or a label only (N-terminal biotin on a linker: ado-ado).
Sequence of MAGI2_3, Q86UL8 (Q86UL8 600-682): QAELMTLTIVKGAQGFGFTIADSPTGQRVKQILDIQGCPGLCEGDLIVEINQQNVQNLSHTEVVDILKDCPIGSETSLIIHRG
Set-up: key: below the threshold = too weak to quantify, mostly under pKd 3.1 to 4

Binder	pKd
EKCGKEFSEF [PRKACA, P17612]	below the threshold
EDLEDEWEVI [TECPR2, O15040]	below the threshold

These binders were tested against T6, MPDZ_10, O75970 (assay: holdup assay). Details: plain residues with an end cap or a label only (N-terminal biotin on a linker: ado-ado).
T6 sequence (O75970 1624-1722, limits assumed, looked up): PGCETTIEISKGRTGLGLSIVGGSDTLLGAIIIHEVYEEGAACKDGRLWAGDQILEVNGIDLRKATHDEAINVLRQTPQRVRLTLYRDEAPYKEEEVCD
Set-up: key: below the threshold = too weak to quantify, mostly under pKd 3.1 to 4

Binder	pKd
EKCGKEFSEF [PRKACA, P17612]	below the threshold
EDLEDEWEVI [TECPR2, O15040]	below the threshold

The binders below were run against T7, NHERF3_1, Q5T2W1 (assay: holdup assay). Details: plain residues with an end cap or a label only (N-terminal biotin on a linker: ado-ado).
T7 sequence (Q5T2W1 4-100, limits assumed, looked up): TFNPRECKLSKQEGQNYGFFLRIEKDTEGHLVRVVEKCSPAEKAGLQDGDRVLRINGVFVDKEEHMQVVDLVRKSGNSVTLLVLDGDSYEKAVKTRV
Set-up: key: below the threshold = too weak to quantify, mostly under pKd 3.1 to 4

Binder	pKd
EKCGKEFSEF [PRKACA, P17612]	below the threshold
EDLEDEWEVI [TECPR2, O15040]	below the threshold

Each binder was assayed against NHERF4_4, Q86UT5 (assay: holdup assay). Details: plain residues with an end cap or a label only (N-terminal biotin on a linker: ado-ado).
Sequence of NHERF4_4, Q86UT5 (Q86UT5 464-550): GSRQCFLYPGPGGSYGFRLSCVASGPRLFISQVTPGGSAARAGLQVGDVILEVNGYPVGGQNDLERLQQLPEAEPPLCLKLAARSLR
Set-up: key: below the threshold = too weak to quantify, mostly under pKd 3.1 to 4

Binder	pKd
EKCGKEFSEF [PRKACA, P17612]	below the threshold
EDLEDEWEVI [TECPR2, O15040]	below the threshold

These binders were tested against T8, PCLO, Q9Y6V0 (assay: holdup assay). Details: plain residues with an end cap or a label only (N-terminal biotin on a linker: ado-ado).
T8 sequence (Q9Y6V0 4491-4600, limits assumed, looked up): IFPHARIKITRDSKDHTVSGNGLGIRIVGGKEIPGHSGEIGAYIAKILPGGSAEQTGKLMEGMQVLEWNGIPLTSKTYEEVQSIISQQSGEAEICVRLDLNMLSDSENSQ
Set-up: key: below the threshold = too weak to quantify, mostly under pKd 3.1 to 4

Binder	pKd
EKCGKEFSEF [PRKACA, P17612]	below the threshold
EDLEDEWEVI [TECPR2, O15040]	below the threshold

What follows are binders tested against T9, RADIL, Q96JH8 (assay: holdup assay). Details: plain residues with an end cap or a label only (N-terminal biotin on a linker: ado-ado).
T9 sequence (Q96JH8 971-1071, limits assumed, looked up): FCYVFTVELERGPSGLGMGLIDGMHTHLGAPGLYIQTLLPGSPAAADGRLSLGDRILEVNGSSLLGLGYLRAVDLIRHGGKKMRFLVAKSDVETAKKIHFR
Set-up: key: below the threshold = too weak to quantify, mostly under pKd 3.1 to 4

Binder	pKd
EKCGKEFSEF [PRKACA, P17612]	below the threshold
EDLEDEWEVI [TECPR2, O15040]	below the threshold

The binders below were run against SCRIB_3, Q14160 (assay: holdup assay). Details: plain residues with an end cap or a label only (N-terminal biotin on a linker: ado-ado).
Sequence of SCRIB_3, Q14160 (Q14160 999-1103): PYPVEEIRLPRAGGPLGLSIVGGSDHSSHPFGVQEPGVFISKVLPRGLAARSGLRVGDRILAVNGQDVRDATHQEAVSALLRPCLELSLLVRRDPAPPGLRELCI
Set-up: key: below the threshold = too weak to quantify, mostly under pKd 3.1 to 4

Binder	pKd
EKCGKEFSEF [PRKACA, P17612]	below the threshold
EDLEDEWEVI [TECPR2, O15040]	3.84

Each binder was assayed against T10, TIAM2, Q8IVF5 (assay: holdup assay). Details: plain residues with an end cap or a label only (N-terminal biotin on a linker: ado-ado).
T10 sequence (Q8IVF5 885-986, limits assumed, looked up): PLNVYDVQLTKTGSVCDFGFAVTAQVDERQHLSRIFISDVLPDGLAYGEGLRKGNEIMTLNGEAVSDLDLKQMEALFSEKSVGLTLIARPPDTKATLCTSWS
Set-up: key: below the threshold = too weak to quantify, mostly under pKd 3.1 to 4

Binder	pKd
EKCGKEFSEF [PRKACA, P17612]	4.13
EDLEDEWEVI [TECPR2, O15040]	3.98

Each binder was assayed against TJP1_2, Q07157 (assay: holdup assay). Details: plain residues with an end cap or a label only (N-terminal biotin on a linker: ado-ado).
Sequence of TJP1_2, Q07157 (Q07157 181-274): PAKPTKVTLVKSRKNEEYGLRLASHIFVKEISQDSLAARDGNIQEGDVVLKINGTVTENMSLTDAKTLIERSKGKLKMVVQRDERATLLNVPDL
Set-up: key: below the threshold = too weak to quantify, mostly under pKd 3.1 to 4

Binder	pKd
EKCGKEFSEF [PRKACA, P17612]	below the threshold
EDLEDEWEVI [TECPR2, O15040]	below the threshold

What follows are binders tested against TJP1_3, Q07157 (assay: holdup assay). Details: plain residues with an end cap or a label only (N-terminal biotin on a linker: ado-ado).
Sequence of TJP1_3, Q07157 (Q07157 416-512): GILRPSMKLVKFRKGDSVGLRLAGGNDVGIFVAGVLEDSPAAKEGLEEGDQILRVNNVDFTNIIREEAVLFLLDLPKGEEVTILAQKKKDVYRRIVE
Set-up: key: below the threshold = too weak to quantify, mostly under pKd 3.1 to 4

Binder	pKd
EKCGKEFSEF [PRKACA, P17612]	below the threshold
EDLEDEWEVI [TECPR2, O15040]	below the threshold
